# Positions count from the first letter of the chain named.
# T1: murine IL27 receptor (IL27Ra and gp130) on mouse cells (MC9/STAT3-Luc reporter cells; splenic CD4+ T cells) (mouse, UniProt O70394 25-623; Q00560 23-917)
# T1 sequence (looked up) 1: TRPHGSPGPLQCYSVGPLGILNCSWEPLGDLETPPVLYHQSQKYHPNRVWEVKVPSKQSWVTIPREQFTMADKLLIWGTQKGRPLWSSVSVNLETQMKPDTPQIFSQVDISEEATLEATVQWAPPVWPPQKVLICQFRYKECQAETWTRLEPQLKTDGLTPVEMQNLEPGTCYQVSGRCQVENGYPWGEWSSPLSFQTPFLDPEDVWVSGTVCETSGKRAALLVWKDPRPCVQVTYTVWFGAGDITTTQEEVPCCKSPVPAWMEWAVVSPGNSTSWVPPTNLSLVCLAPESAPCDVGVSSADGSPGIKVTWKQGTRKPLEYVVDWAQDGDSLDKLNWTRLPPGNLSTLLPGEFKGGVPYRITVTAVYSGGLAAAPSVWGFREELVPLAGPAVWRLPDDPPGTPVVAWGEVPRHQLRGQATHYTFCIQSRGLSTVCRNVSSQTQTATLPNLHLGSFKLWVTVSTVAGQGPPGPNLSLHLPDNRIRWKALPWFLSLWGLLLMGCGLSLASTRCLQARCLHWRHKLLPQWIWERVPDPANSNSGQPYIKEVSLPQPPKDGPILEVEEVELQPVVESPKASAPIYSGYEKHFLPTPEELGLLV
# T1 sequence (looked up) 2: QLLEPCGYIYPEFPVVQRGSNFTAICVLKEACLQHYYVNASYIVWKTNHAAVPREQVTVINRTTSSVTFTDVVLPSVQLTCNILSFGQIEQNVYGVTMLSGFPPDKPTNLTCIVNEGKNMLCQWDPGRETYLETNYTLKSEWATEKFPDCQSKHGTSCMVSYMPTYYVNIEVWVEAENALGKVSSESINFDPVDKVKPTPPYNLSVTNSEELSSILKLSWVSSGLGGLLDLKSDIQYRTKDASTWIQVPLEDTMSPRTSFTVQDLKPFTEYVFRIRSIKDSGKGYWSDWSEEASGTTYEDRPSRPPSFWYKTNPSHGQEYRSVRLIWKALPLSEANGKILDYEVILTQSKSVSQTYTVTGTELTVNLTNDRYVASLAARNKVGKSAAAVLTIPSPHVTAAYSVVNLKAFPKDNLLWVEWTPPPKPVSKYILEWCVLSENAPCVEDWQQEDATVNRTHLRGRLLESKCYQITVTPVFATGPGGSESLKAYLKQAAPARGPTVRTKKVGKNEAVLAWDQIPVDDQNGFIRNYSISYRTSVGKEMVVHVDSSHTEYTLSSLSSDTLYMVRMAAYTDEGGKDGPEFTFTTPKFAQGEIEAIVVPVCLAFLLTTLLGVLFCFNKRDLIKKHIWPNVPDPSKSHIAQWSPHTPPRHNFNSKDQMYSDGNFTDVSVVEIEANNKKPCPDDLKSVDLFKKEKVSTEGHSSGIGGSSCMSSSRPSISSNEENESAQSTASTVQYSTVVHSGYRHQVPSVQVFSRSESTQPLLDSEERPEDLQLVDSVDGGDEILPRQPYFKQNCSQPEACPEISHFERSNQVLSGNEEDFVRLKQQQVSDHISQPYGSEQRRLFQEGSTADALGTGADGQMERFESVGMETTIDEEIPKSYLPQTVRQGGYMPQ
# B1: IL27M3, Bivalent p28-EBI3-Fc (Fc fusion)
# chain: FPTDPLSLQELRREFTVSLYLARKLLSEVQGYVHSFAESRLPGVNLDLLPLGYHLPNVSLTFQAWHHLSDSERLCFLATTLRPFPAMLGGLGTQGTWTSSEREQLWAMRLDLRDLHRHLRFQVLAAGFKCSKEEEDKEEEEEEEEEEKKLPLGALGGPNQVSSQVSWPQLLYTYQLLHSLELVLSRAVRDLLLLSLPRRPGSAWDSGGGGSGGGGSGGGGSGGGGSGGGGSYTETALVALSQPRVQCHASRYPVAVDCSWTPLQAPNSTRSTSFIATYRLGVATQQQSQPCLQRSPQASRCTIPDVHLFSTVPYMLNVTAVHPGGASSSLLAFVAERIIKPDPPEGVRLRTAGQRLQVLWHPPASWPFPDIFSLKYRLRYRRRGASHFRQVGPIEATTFTLRNSKPHAKYCIQVSAQDLTDYGKPSDWSLPGQVESAPHKPGGGGSGGGGSGGGGSESKYGPPCPPCPAPPVAGPSVFLFPPKPKDTLMISRTPEVTCVVVDVSQEDPEVQFNWYVDGVEVHNAKTKPREEQFNSTYRVVSVLTVLHQDWLNGKEYKCKVSNKGLPSSIEKTISKAKGQPREPQVYTLPPSQEEMTKNQVSLTCLVKGFYPSDIAVEWESNGQPENNYKTTPPVLDSDGSFFLYSRLTVDKSRWQEGNVFSCSVMHEALHNHYTQKSLSLSLGK
# B2: IL27M12, monovalent EBI3-p28 x Fc (Fc fusion)
# chain 1: YTETALVALSQPRVQCHASRYPVAVDCSWTPLQAPNSTRSTSFIATYRLGVATQQQSQPCLQRSPQASRCTIPDVHLFSTVPYMLNVTAVHPGGASSSLLAFVAERIIKPDPPEGVRLRTAGQRLQVLWHPPASWPFPDIFSLKYRLRYRRRGASHFRQVGPIEATTFTLRNSKPHAKYCIQVSAQDLTDYGKPSDWSLPGQVESAPHKPGGGGSGGGGSGGGGSGGGGSFPTDPLSLQELRREFTVSLYLARKLLSEVQGYVHSFAESRLPGVNLDLLPLGYHLPNVSLTFQAWHHLSDSERLCFLATTLRPFPAMLGGLGTQGTWTSSEREQLWAMRLDLRDLHRHLRFQVLAAGFKCSKEEEDKEEEEEEEEEEKKLPLGALGGPNQVSSQVSWPQLLYTYQLLHSLELVLSRAVRDLLLLSLPRRPGSAWDSGGGGSGGGGSGGGGSESKYGPPCPPCPAPPVAGPSVFLFPPKPKDTLMISRTPEVTCVVVDVSQEDPEVQFNWYVDGVEVHNAKTKPREEQFNSTYRVVSVLTVLHQDWLNGKEYKCKVSNKGLPSSIEKTISKAKGQPREPQVYTLPPSQEEMTKNQVSLWCLVKGFYPSDIAVEWESNGQPENNYKTTPPVLDSDGSFFLYSRLTVDKSRWQEGNVFSCSVMHEALHNHYTQKSLSLSLGK
# chain 2: ESKYGPPCPPCPAPPVAGPSVFLFPPKPKDTLMISRTPEVTCVVVDVSQEDPEVQFNWYVDGVEVHNAKTKPREEQFNSTYRVVSVLTVLHQDWLNGKEYKCKVSNKGLPSSIEKTISKAKGQPREPQVYTLPPSQEEMTKNQVSLSCAVKGFYPSDIAVEWESNGQPENNYKTTPPVLDSDGSFFLVSRLTVDKSRWQEGNVFSCSVMHEALHNRFTQKSLSLSPGK
# B3: IL27M13, Bivalent p28-Fc (Fc fusion)
# chain: FPTDPLSLQELRREFTVSLYLARKLLSEVQGYVHSFAESRLPGVNLDLLPLGYHLPNVSLTFQAWHHLSDSERLCFLATTLRPFPAMLGGLGTQGTWTSSEREQLWAMRLDLRDLHRHLRFQVLAAGFKCSKEEEDKEEEEEEEEEEKKLPLGALGGPNQVSSQVSWPQLLYTYQLLHSLELVLSRAVRDLLLLSLPRRPGSAWDSGGGGSGGGGSGGGGSESKYGPPCPPCPAPPVAGPSVFLFPPKPKDTLMISRTPEVTCVVVDVSQEDPEVQFNWYVDGVEVHNAKTKPREEQFNSTYRVVSVLTVLHQDWLNGKEYKCKVSNKGLPSSIEKTISKAKGQPREPQVYTLPPSQEEMTKNQVSLTCLVKGFYPSDIAVEWESNGQPENNYKTTPPVLDSDGSFFLYSRLTVDKSRWQEGNVFSCSVMHEALHNHYTQKSLSLSLGK
# B4: IL27M4, Bivalent Fc-EBI3-p28 (Fc fusion)
# chain: ESKYGPPCPPCPAPPVAGPSVFLFPPKPKDTLMISRTPEVTCVVVDVSQEDPEVQFNWYVDGVEVHNAKTKPREEQFNSTYRVVSVLTVLHQDWLNGKEYKCKVSNKGLPSSIEKTISKAKGQPREPQVYTLPPSQEEMTKNQVSLTCLVKGFYPSDIAVEWESNGQPENNYKTTPPVLDSDGSFFLYSRLTVDKSRWQEGNVFSCSVMHEALHNHYTQKSLSLSLGKGGGGSGGGGSGGGGSYTETALVALSQPRVQCHASRYPVAVDCSWTPLQAPNSTRSTSFIATYRLGVATQQQSQPCLQRSPQASRCTIPDVHLFSTVPYMLNVTAVHPGGASSSLLAFVAERIIKPDPPEGVRLRTAGQRLQVLWHPPASWPFPDIFSLKYRLRYRRRGASHFRQVGPIEATTFTLRNSKPHAKYCIQVSAQDLTDYGKPSDWSLPGQVESAPHKPGGGGSGGGGSGGGGSGGGGSFPTDPLSLQELRREFTVSLYLARKLLSEVQGYVHSFAESRLPGVNLDLLPLGYHLPNVSLTFQAWHHLSDSERLCFLATTLRPFPAMLGGLGTQGTWTSSEREQLWAMRLDLRDLHRHLRFQVLAAGFKCSKEEEDKEEEEEEEEEEKKLPLGALGGPNQVSSQVSWPQLLYTYQLLHSLELVLSRAVRDLLLLSLPRRPGSAWDS
# B5: IL27M5, Bivalent Fc-p28-EBI3 (Fc fusion)
# chain: ESKYGPPCPPCPAPPVAGPSVFLFPPKPKDTLMISRTPEVTCVVVDVSQEDPEVQFNWYVDGVEVHNAKTKPREEQFNSTYRVVSVLTVLHQDWLNGKEYKCKVSNKGLPSSIEKTISKAKGQPREPQVYTLPPSQEEMTKNQVSLTCLVKGFYPSDIAVEWESNGQPENNYKTTPPVLDSDGSFFLYSRLTVDKSRWQEGNVFSCSVMHEALHNHYTQKSLSLSLGKGGGGSGGGGSGGGGSFPTDPLSLQELRREFTVSLYLARKLLSEVQGYVHSFAESRLPGVNLDLLPLGYHLPNVSLTFQAWHHLSDSERLCFLATTLRPFPAMLGGLGTQGTWTSSEREQLWAMRLDLRDLHRHLRFQVLAAGFKCSKEEEDKEEEEEEEEEEKKLPLGALGGPNQVSSQVSWPQLLYTYQLLHSLELVLSRAVRDLLLLSLPRRPGSAWDSGGGGSGGGGSGGGGSGGGGSGGGGSYTETALVALSQPRVQCHASRYPVAVDCSWTPLQAPNSTRSTSFIATYRLGVATQQQSQPCLQRSPQASRCTIPDVHLFSTVPYMLNVTAVHPGGASSSLLAFVAERIIKPDPPEGVRLRTAGQRLQVLWHPPASWPFPDIFSLKYRLRYRRRGASHFRQVGPIEATTFTLRNSKPHAKYCIQVSAQDLTDYGKPSDWSLPGQVESAPHKP
# B6: IL27M6, monovalent Fc-p28 x EBI3 (Fc fusion)
# chain 1: ESKYGPPCPPCPAPPVAGPSVFLFPPKPKDTLMISRTPEVTCVVVDVSQEDPEVQFNWYVDGVEVHNAKTKPREEQFNSTYRVVSVLTVLHQDWLNGKEYKCKVSNKGLPSSIEKTISKAKGQPREPQVYTLPPSQEEMTKNQVSLWCLVKGFYPSDIAVEWESNGQPENNYKTTPPVLDSDGSFFLYSRLTVDKSRWQEGNVFSCSVMHEALHNHYTQKSLSLSLGKGGGGSGGGGSGGGGSFPTDPLSLQELRREFTVSLYLARKLLSEVQGYVHSFAESRLPGVNLDLLPLGYHLPNVSLTFQAWHHLSDSERLCFLATTLRPFPAMLGGLGTQGTWTSSEREQLWAMRLDLRDLHRHLRFQVLAAGFKCSKEEEDKEEEEEEEEEEKKLPLGALGGPNQVSSQVSWPQLLYTYQLLHSLELVLSRAVRDLLLLSLPRRPGSAWDS
# chain 2: ESKYGPPCPPCPAPPVAGPSVFLFPPKPKDTLMISRTPEVTCVVVDVSQEDPEVQFNWYVDGVEVHNAKTKPREEQFNSTYRVVSVLTVLHQDWLNGKEYKCKVSNKGLPSSIEKTISKAKGQPREPQVYTLPPSQEEMTKNQVSLSCAVKGFYPSDIAVEWESNGQPENNYKTTPPVLDSDGSFFLVSRLTVDKSRWQEGNVFSCSVMHEALHNRFTQKSLSLSPGKGGGGSGGGGSGGGGSYTETALVALSQPRVQCHASRYPVAVDCSWTPLQAPNSTRSTSFIATYRLGVATQQQSQPCLQRSPQASRCTIPDVHLFSTVPYMLNVTAVHPGGASSSLLAFVAERIIKPDPPEGVRLRTAGQRLQVLWHPPASWPFPDIFSLKYRLRYRRRGASHFRQVGPIEATTFTLRNSKPHAKYCIQVSAQDLTDYGKPSDWSLPGQVESAPHKP
# B7: IL27M17, Bivalent Fc-p28 (Fc fusion)
# chain: B6 chain 1 with W147T
# Molecular target: T1, murine IL27 receptor (IL27Ra and gp130) …
# Test: cell-based or functional assay
"EC50 (M), STAT3 luciferase, MC9 cells [M]","FOLD INDUCTION, STAT3 luciferase, MC9 cells [fold]",Binder
8.63e-10,3.02,B1
1.22e-11,2.68,B2
,1.11,B3
4.71e-10,2.78,B4
4.19e-10,2.91,B5
3.21e-11,2.8,B6
,1.16,B7

# From patent publication US20230110958A1 (Regeneron, published 2023)
